In publication PMC2121020 (The Journal of Cell Biology, 1996):

T1: CD44 of BHK cells (hamster (endogenous in BHK), UniProt Q60522 23-431)
T1 sequence: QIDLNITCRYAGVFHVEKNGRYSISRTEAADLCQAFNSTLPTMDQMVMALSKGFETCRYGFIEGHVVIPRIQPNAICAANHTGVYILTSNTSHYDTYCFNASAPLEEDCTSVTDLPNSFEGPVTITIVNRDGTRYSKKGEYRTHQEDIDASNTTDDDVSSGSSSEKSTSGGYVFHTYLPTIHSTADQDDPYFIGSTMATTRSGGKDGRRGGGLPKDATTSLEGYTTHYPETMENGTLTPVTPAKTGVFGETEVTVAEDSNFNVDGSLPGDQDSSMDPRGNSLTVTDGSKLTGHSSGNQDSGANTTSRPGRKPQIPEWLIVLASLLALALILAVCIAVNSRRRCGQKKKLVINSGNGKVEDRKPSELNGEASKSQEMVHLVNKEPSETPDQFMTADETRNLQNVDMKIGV

B1: recombinant mouse moesin (natural protein)
chain: MPKTISVRVTTMDAELEFAIQPNTTGKQLFDQVVKTIGLREVWFFGLQYQDTKAFSTWLKLNKKVTAQDVRKESPLLFKFRAKFYPEDVSEELIQDITQRLFFLQVKEGILNDDIYCPPETAVLLASYAVQSKYGDFNKEVHKSGYLAGDKLLPQRVLEQHKLNKDQWEERIQVWHEEHRGMLREDAVLEYLKIAQDLEMYGVNYFSIKNKKGSELWLGVDALGLNIYEQNDRLTPKIGFPWSEIRNISFNDKKFVIKPIDKKAPDFVFYAPRLRINKRILALCMGNHELYMRRRKPDTIEVQQMKAQAREEKHQKQMERALLENEKKKRELAEKEKEKIEREKEELMEKLKQIEEQTKKAQQELEEQTRRALELEQERKRAQSEAEKLAKERQEAEEAKEALLQASRDQKKTQEQLASEMAELTARISQLEMARKKKESEAVEWQQKAQMVQEDLEKTRAELKTAMSTPHVAEPAENEHDEQDENGAEASAELRADAMAKDRSEEERTTEAEKNERVQKHLKALTSELANARDESKKTANDMIHAENMRLGRDKYKTLRQIRQGNTKQRIDEFESM
B2: recombinant mouse ezrin (natural protein)
chain: MPKPINVRVTTMDAELEFAIQPNTTGKQLFDQVVKTIGLREVWYFGLQYVDNKGFPTWLKLDKKVSAQEVRKENPVQFKFRAKFYPEDVAEELIQDITQKLFFLQVKDGILSDEIYCPPETAVLLGSYAVQAKFGDYNKEMHKSGYLSSERLIPQRVMDQHKLSRDQWEDRIQVWHAEHRGMLKDSAMLEYLKIAQDLEMYGINYFEIKNKKGTDLWLGVDALGLNIYEKDDKLTPKIGFPWSEIRNISFNDKKFVIKPIDKKAPDFVFYAPRLRINKRILQLCMGNHELYMRRRKPDTIEVQQMKAQAREEKHQKQLERQQLETEKKRRETVEREKEQMLREKEELMLRLQDYEQKTKRAEKELSEQIEKALQLEEERRRAQEEAERLEADRMAALRAKEELERQAQDQIKSQEQLAAELAEYTAKIALLEEARRRKEDEVEEWQHRAKEAQDDLVKTKEELHLVMTAPPPPPPPVYEPVNYHVQEGLQDEGAEPMGYSAELSSEGILDDRNEEKRITEAEKNERVQRQLLTLSNELSQARDENKRTHNDIIHNENMRQGRDKYKTLRQIRQGNTKQRIDEFEAM
B3: recombinant mouse radixin (natural protein)
chain: MPKPINVRVTTMDAELEFAIQPNTTGKQLFDQVVKTVGLREVWFFGLQYVDSKGYSTWLKLNKKVTQQDVKKENPLQFKFRAKFFPEDVSEELIQEITQRLFFLQVKEAILNDEIYCPPETAVLLASYAVQAKYGDYNKEIHKPGYLANDRLLPQRVLEQHKLTKEQWEERIQNWHEEHRGMLREDSMMEYLKIAQDLEMYGVNYFEIKNKKGTELWLGVDALGLNIYEHDDKLTPKIGFPWSEIRNISFNDKKFVIKPIDKKAPDFVFYAPRLRINKRILALCMGNHELYMRRRKPDTIEVQQMKAQAREEKHQKQLERAQLENEKKKREIAEKEKERIEREKEELMERLRQIEEQTVKAQKELEEQTRKALELEQERQRAKEEAERLDRERRAAEEAKSAIAKQAADQMKNQEQLAAELAEFTAKIALLEEAKKKKEEEATEWQHKAFAAQEDLEKTKEELKTVMSAPPPPPPPPVIPPTENEHDEQDENSAEASAELSSEGVMNHRSEEERVTETQKNERVKKQLQALSSELAQARDETKKTQNDVLHAENVKAGRDKYKTLRQIRQGNTKQRIDEFEAM

How the values were obtained:
CD44 of BHK cells = molecular target: T1, CD44 of BHK cells; assay: co-sedimentation
[1] = molecular target: B3; assay: pull-down
recombinant mouse moesin = molecular target: B1; assay: pull-down
recombinant mouse ezrin = molecular target: B2; assay: pull-down

| amount recovered in the insoluble fraction (of about 0.8 ug added) (CD44 of BHK cells) [µg] | binding result [1] | Kd (recombinant mouse moesin) [nM] | binding result (recombinant mouse ezrin) | Binder |
| --- | --- | --- | --- | --- |
| ~0.05 | – | – | – | B1 |
| ~0.05 | – | – | – | B2 |
| ~0.05 | – | – | – | B3 |
| – | binds | 9.3 ± 1.6 | binds | GST fusion protein with the cytoplasmic domain of mouse CD44 (domain or fragment) NSRRRCGQKKKLVINGGNGTVEDRKPSELNGEASKSQEMVHLVNKEPSETPDQCMTADETRNLQSVDMKIGV |
